Results as given in patent US20240317834A1, “COMPOSITIONS AND METHODS FOR NEUROLOGICAL DISEASES” (CODA BIOTHERAPEUTICS, INC., priority 2020, published 2024).

Experiments:
[1] = Sensitivity of parental chimera SEQ ID NO: 33 to ligands relative to wild type α7-nAChR
Lenti-X 293T cells = test: YFP fluorescence quenching anion reporter plate reader assay of engineered receptors stimulated with acetylcholine or a non-native ligand; format: cell-based
In short: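 Lenti-X 293T cells carrying a YFP anion reporter were transiently transfected with channel DNA and assayed the next day in HEPES-buffered ECS at pH 7.2. Ligand (acetylcholine or non-native ligand) was added in NaI-substituted ECS. Percent quench was the mean of the last 10 s relative to the 15 s pre-addition baseline.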

B1: CODA71: parental chimeric LGIC: human α7-nAChR ligand binding domain with GlyRα1 Cys-loop fused to human GlyRα1 ion pore domain (protein)
chain: MRCSPGGVWLALAASLLHVSLQGEFQRKLYKELVKNYNPLERPVANDSQPLTVYFSLSLLQIMDVDEKNQVLTTNIWLQMSWTDHYLQWNVSEYPGVKTVRFPDGQIWKPDILLYNSADERFDATFHTNVLVNSSGHCQYLPPGIFKSSCPMDLKNFPMDVQTCKLKFGSWSYGGWSLDLQMQEADISGYIPNGEWDLVGIPGKRSERFYECCKEPYPDVTFTVTMRRRMGYYLIQMYIPSLLIVILSWISFWINMDAAPARVGLGITTVLTMTTQSSGSRASLPKVSYVKAIDIWMAVCLLFVFSALLEYAAVNFVSRQHKELLRFRRKRRHHKSPMLNLFQEDEAGEGRFNFSAYGMGPACLQAKDGISVKGANNSNTTNPPPAPSKSPEEMRKLFIQRAKKIDKISRIGFPMAFLIFNMFYWIIYKIVRREDVHNQ
modifications: synthetic sequence of chimeric LGIC
With B1 the “sensitivity to ABT-126 compared with wild type α7-nAChR” value ([1]; ligand ABT-126) was “approximately as sensitive”, the “fold more sensitive to AZD-0328 than wild type” value ([1]; ligand AZD-0328) was “approximately 3 fold” and the “fold more sensitive to Facinicline/RG3487 than wild type” value ([1]; ligand Facinicline/RG3487) was about 10 fold. For the same molecule, the “sensitivity to TC-6987 compared with wild type α7-nAChR” value ([1]; ligand TC-6987) was “approximately as sensitive”, the “type of agonist activity of TC-6987 on the receptor” value ([1]; ligand TC-6987, similar to wild type) was “partial agonist activity” and the “sensitivity to acetylcholine compared with wild type α7-nAChR” value ([1]; ligand acetylcholine) was “approximately as sensitive”. For the same molecule, the “fold less sensitive to nicotine than wild type” value ([1]; ligand nicotine) was about 2 fold, the “YFP fluorescence quenching using CNL001” value (Lenti-X 293T cells; 1 nM CNL001, first column) was 3.727% and the “YFP fluorescence quenching using CNL001” value (Lenti-X 293T cells; 1 nM CNL001, second column) was 20.231%. For the same molecule, the “YFP fluorescence quenching using TC-5619/Bradanicline” value (Lenti-X 293T cells; 1 nM brd) was 9.41%, the “YFP fluorescence quenching using TC-5619/Bradanicline” value (Lenti-X 293T cells; 3 nM brd) was 44.38% and the “YFP fluorescence quenching using Varenicline” value (Lenti-X 293T cells; 3 nM var, first column) was −2.36. For the same molecule, the “YFP fluorescence quenching using Varenicline” value (Lenti-X 293T cells; 3 nM var, second column) was −3.522, the “YFP fluorescence quenching using CNL001” value (Lenti-X 293T cells; 10 nM CNL001, first column) was 81.096% and the “YFP fluorescence quenching using CNL001” value (Lenti-X 293T cells; 10 nM CNL001, second column) was 82.368%. For the same molecule, the “YFP fluorescence quenching using TC-5619/Bradanicline” value (Lenti-X 293T cells; 10 nM brd) was 76.61%, the “YFP fluorescence quenching using TC-5619/Bradanicline” value (Lenti-X 293T cells; 30 nM brd) was 70.23% and the “YFP fluorescence quenching using Facinicline” value (Lenti-X 293T cells; 30 nM fac) was 53.42. For the same molecule, the “YFP fluorescence quenching using Varenicline” value (Lenti-X 293T cells; 30 nM var, first column) was −4.255, the “YFP fluorescence quenching using Varenicline” value (Lenti-X 293T cells; 30 nM var, second column) was −3.636 and the “YFP fluorescence quenching using CNL001” value (Lenti-X 293T cells; 50 nM CNL001, first column) was 83.62%. The “YFP fluorescence quenching using CNL001” value (Lenti-X 293T cells; 50 nM CNL001, second column) was 84.482%, the “YFP fluorescence quenching using ABT-126” value (Lenti-X 293T cells; 50 nM abt) was −1.98% and the “YFP fluorescence quenching using CNL001” value (Lenti-X 293T cells; 100 nM CNL001, first column) was 84.297%. The “YFP fluorescence quenching using CNL001” value (Lenti-X 293T cells; 100 nM CNL001, second column) was 85.368%, the “YFP fluorescence quenching using CNL002” value (Lenti-X 293T cells; 100 nM CNL002) was 49.61% and the “YFP fluorescence quenching using ABT-126” value (Lenti-X 293T cells; 100 nM abt) was 24.27%. The “YFP fluorescence quenching using AZD-0328” value (Lenti-X 293T cells; 100 nM azd0328) was 73.59%, the “YFP fluorescence quenching using TC-5619/Bradanicline” value (Lenti-X 293T cells; 100 nM brd) was 78.62% and the “YFP fluorescence quenching using Facinicline” value (Lenti-X 293T cells; 100 nM fac) was 83.6. The “YFP fluorescence quenching using ABT-126” value (Lenti-X 293T cells; 300 nM abt) was 56.8%, the “YFP fluorescence quenching using AZD-0328” value (Lenti-X 293T cells; 300 nM azd0328) was 78.09% and the “YFP fluorescence quenching using TC-5619/Bradanicline” value (Lenti-X 293T cells; 300 nM brd) was 75.51%. The “YFP fluorescence quenching using Facinicline” value (Lenti-X 293T cells; 300 nM fac) was 77.44, the “YFP fluorescence quenching using Varenicline” value (Lenti-X 293T cells; 300 nM var, first column) was 46.195 and the “YFP fluorescence quenching using Varenicline” value (Lenti-X 293T cells; 300 nM var, second column) was 45.522. The “YFP fluorescence quenching using ABT-126” value (Lenti-X 293T cells; 500 nM abt) was 76.28%, the “YFP fluorescence quenching using Varenicline” value (Lenti-X 293T cells; 500 nM var, first column) was 69.253 and the “YFP fluorescence quenching using Varenicline” value (Lenti-X 293T cells; 500 nM var, second column) was 71.705. The “YFP fluorescence quenching using CNL001” value (Lenti-X 293T cells; 1 uM CNL001, first column) was 85.647%, the “YFP fluorescence quenching using CNL001” value (Lenti-X 293T cells; 1 uM CNL001, second column) was 86.358% and the “YFP fluorescence quenching using CNL002” value (Lenti-X 293T cells; 1 uM CNL002) was 74.15%. The “YFP fluorescence quenching using ABT-126” value (Lenti-X 293T cells; 1 uM abt) was 73.16%, the “YFP fluorescence quenching using TC-6987” value (Lenti-X 293T cells; 1 uM tc6987) was 31.56 and the “YFP fluorescence quenching using Varenicline” value (Lenti-X 293T cells; 1 uM var, first column) was 79.254. For the same molecule, the “YFP fluorescence quenching using Varenicline” value (Lenti-X 293T cells; 1 uM var, second column) was 79.244, the “YFP fluorescence quenching using ABT-126” value (Lenti-X 293T cells; 3 uM abt) was 70.98% and the “YFP fluorescence quenching using TC-6987” value (Lenti-X 293T cells; 3 uM tc6987) was 31.82. The “YFP fluorescence quenching using TC-6987” value (Lenti-X 293T cells; 5 uM tc6987) was 30.75, the “YFP fluorescence quenching using ABT-126” value (Lenti-X 293T cells; 10 uM abt) was 72.62% and the “YFP fluorescence quenching using TC-6987” value (Lenti-X 293T cells; 10 uM tc6987) was 56.68. The “YFP fluorescence quenching using CNL002” value (Lenti-X 293T cells; 30 uM CNL002) was 75.21%, the “YFP fluorescence quenching using ABT-126” value (Lenti-X 293T cells; 30 uM abt) was 77.49% and the “YFP fluorescence quenching using AZD-0328” value (Lenti-X 293T cells; 30 uM azd0328) was 79.05%. The “YFP fluorescence quenching using Facinicline” value (Lenti-X 293T cells; 30 uM fac) was 79.62, the “YFP fluorescence quenching using TC-6987” value (Lenti-X 293T cells; 30 uM tc6987) was 51.46 and the “YFP fluorescence quenching using ABT-126” value (Lenti-X 293T cells; 50 uM abt) was 77.96%. For the same molecule, the “YFP fluorescence quenching using TC-6987” value (Lenti-X 293T cells; 50 uM tc6987) was 61.26, the “YFP fluorescence quenching using ABT-126” value (Lenti-X 293T cells; 100 uM abt) was 77.81% and the “YFP fluorescence quenching using TC-6987” value (Lenti-X 293T cells; 100 uM tc6987) was 43.21. The “YFP fluorescence quenching using TC-6987” value (Lenti-X 293T cells; 300 uM tc6987) was 7.79, the “YFP fluorescence quenching using TC-6987” value (Lenti-X 293T cells; 500 uM tc6987) was 51.58 and the “percent quench of YFP fluorescence, 30 nM TC-6683” value (Lenti-X 293T cells; TC-6683 30 nM) was −14.43%. The “percent quench of YFP fluorescence, 300 nM TC-6683” value (Lenti-X 293T cells; TC-6683 300 nM) was −13.08%, the “percent quench of YFP fluorescence, 3 uM TC-6683” value (Lenti-X 293T cells; TC-6683 3 uM) was −13.71% and the “percent quench of YFP fluorescence, 30 uM TC-6683” value (Lenti-X 293T cells; TC-6683 30 uM) was −14.02%. For the same molecule, the “percent quench of YFP fluorescence, 100 uM TC-6683” value (Lenti-X 293T cells; TC-6683 100 uM) was −8.77%, the “percent quench of YFP fluorescence, 10 uM ach” value (Lenti-X 293T cells; acetylcholine 10 uM) was 15.61% and the “percent quench of YFP fluorescence, 30 uM ach” value (Lenti-X 293T cells; acetylcholine 30 uM) was 63.31%. The “percent quench of YFP fluorescence, 50 uM ach” value (Lenti-X 293T cells; acetylcholine 50 uM) was 73.16%, the “percent quench of YFP fluorescence, 100 uM ach” value (Lenti-X 293T cells; acetylcholine 100 uM) was 74.94% and the “percent quench of YFP fluorescence, 300 uM ach” value (Lenti-X 293T cells; acetylcholine 300 uM) was 65.94%. The “percent quench of YFP fluorescence, 500 uM ach” value (Lenti-X 293T cells; acetylcholine 500 uM) was 62.78%, the “percent quench of YFP fluorescence, 1 mM ach” value (Lenti-X 293T cells; acetylcholine 1 mM) was 74.24% and the “percent quench of YFP fluorescence, 3 mM ach” value (Lenti-X 293T cells; acetylcholine 3 mM) was 76.27%. The “percent quench of YFP fluorescence, 5 mM ach” value (Lenti-X 293T cells; acetylcholine 5 mM) was 77.15% and the “percent quench of YFP fluorescence, 10 mM ach” value (Lenti-X 293T cells; acetylcholine 10 mM) was 77.96%.
